In assay [1] the target is DMF5 T cell receptor. In words: flow cytometry, tetramer titration on Jurkat T-cells transduced with DMF5. Background: In flow cytometry, cells or beads pass a laser one at a time.
Assay [2] addresses DMF5 T cell receptor. The experiment in a line: flow cytometry, barcoded tetramer library on Jurkat/MA cells transduced with DMF5.

In the assay with DMF5 T cell receptor [1], “MART-1/HLA-A*02:01 tetramer (from UniProt P61769 21-119) (peptide-MHC)” returned a fold improvement in EC50 relative to photo-exchanged tetramers of 2.6 fold. This substance also showed a percent of cells stained with DMF5 T cell receptor [2] of 33%.

Values taken from patent US20240294601A1.
